Data taken from patent US20090117091A1 (BIOMARIN PHARMACEUTICAL, published 2009).

Molecular target: GILT-tagged GAA ZC-701 (human, UniProt P10253 70-952)
Test: SPR (Biacore 3000); biotinylated CI-MPR Dom10-13 on SA chip, analyte in solution, steady-state affinity fit, I1572T mutant surface as reference
Experimental: Following docking of the SA sensor chip, the SA chip was washed two times with deionized water. The flow cells to be coupled were conditioned by injecting 60 ml of a buffer containing 50 mM NaOH/1 M NaCl at a flow rate of 20 ml/min. The chip was washed with H2O as described above. The chip was then washed with coupling buffer (10 mM HEPES pH 7.4/100 mM NaCl) as described above. […] Flow cells (FC) 1 & 2 were coupled at a higher density than FC 3 & 4. FC1 and FC3 were immobilized with the mutant Dom 10-13 construct and were used as the reference surface (i.e., the response obtained from FC1 was subtracted from FC2; the response obtained from FC3 was subtracted from FC4). FC2 and FC4 were immobilized with the wild-type Dom10-13 construct. […] Following the 50 ml injection of coupling buffer containing the Dom10-13 constructs, the chip was washed with coupling buffer alone (10 ml injection at a flow rate of 10 ml/min). Remaining unbound streptavidin binding sites were saturated with biotin by two sequential 10 ml injections of biotin (10 mM) at a flow rate of 10 μl/min.
After coupling, the flow cells were equilibrated in running buffer (10 mM HEPES pH 7.0, 150 mM NaCl, and 0.005% (v/v) surfactant P20).

Kd: 33 nM
B1: biotinylated, His-tagged recombinant wild-type CI-MPR domains 10-13 (1288FS) (receptor)
chain: AGAPTGHHHHHHAPGLNDIFEAQKIEWHEPFDLTECSFKDGAGNSFDLSSLSRYSDNWEAITGTGDPEHYLINVCKSLAPQAGTEPCPPEAAACLLGGSKPVNLGRVRDGPQWRDGIIVLKYVDGDLCPDGIRKKSTTIRFTCSESQVNSRPMFISAVEDCEYTFAWPTATACPMKSNEHDDCQVTNPSTGHLFDLSSLSGRAGFTAAYSEKGLVYMSICGENENCPPGVGACFGQTRISVGKANKRLRYVDQVLQLVYKDGSPCPSKSGLSYKSVISFVCRPEAGPTNRPMLISLDKQTCTLFFSWHTPLACEQATECSVRNGSSIVDLSPLIHRTGGYEAYDESEDDASDTNPDFYINICQPLNPMHGVPCPAGAAVCKVPIDGPPIDIGRVAGPPILNPIANEIYLNFESSTPCLADKHFNYTSLIAFHCKRGVSMGTPKLLRTSECDFVFEWETPVVCPDEVRMDGCTLTDEQLLYSFNLSSLSTSTFKVTRDSRTYSVGVCTFAVGPEQGGCKDGGVCLLSGTKGASFGRLQSMKLDYRHQDEAVVLSYVNGDRCPPETDDGVPCVFPFIFNGKSYEECIIESRAKLWCSTTADYDRDHEWGFCRHSNSYRTSSIIFKCDEDEDIGRPQVFSEVRGCDVTFEWKTKVVCP
modifications: biotinylated with BirA enzyme in the Biotin AS domain
notes: The protein was immobilised on a streptavidin chip; also called p1288; HIS-BIOTIN-CI-MPR DOMAINS 10-13
